Reference: patent US20240228626A1 (IMMUNORIZON, published 2024)
Blank lines part the entries; values can stand above or below the binder they belong to.

How the values were obtained:
[1] = biological target: recombinant human NKG2D-ECD-Fc (extracellular domain of NKG2D fused to human Fc) (human) (UniProt P26718); test: ELISA on coated NKG2D-ECD-Fc
[2] = biological target: cyno-NKG2D/Dap10 over-expressed in CHO cells (cyno) (UniProt P61252); test: FACS on CHO cells over expressing cynoNKG2D
[3] = biological target: T1, NKG2D on primary NK cells purified from healthy donor's PBMCs (human, UniProt P26718 1-216); test: FACS on primary NK cells, 100 nM and 10 nM
T1 construct: whole, on cells
T1 sequence (looked up): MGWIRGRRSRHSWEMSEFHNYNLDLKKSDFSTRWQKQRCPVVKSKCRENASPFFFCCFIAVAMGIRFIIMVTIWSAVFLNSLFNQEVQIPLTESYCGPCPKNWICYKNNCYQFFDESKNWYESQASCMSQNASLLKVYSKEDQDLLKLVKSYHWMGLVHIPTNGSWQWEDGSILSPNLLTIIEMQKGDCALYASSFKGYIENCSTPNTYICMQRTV

[4] = biological target: T1, NKG2D on primary NK cells purified from …; test: FACS on primary NK cells, two concentrations
[5] = biological target: T1, NKG2D on primary NK cells purified from …; test: FACS on cells
[6] = biological target: NKG2D on primary NK cells purified from healthy donor's PBMCs (human) (UniProt P26718); test: cell-based or functional assay

Sequence of cyno-NKG2D/Dap10 over-expressed in CHO cells (cyno) (P61252 whole entry): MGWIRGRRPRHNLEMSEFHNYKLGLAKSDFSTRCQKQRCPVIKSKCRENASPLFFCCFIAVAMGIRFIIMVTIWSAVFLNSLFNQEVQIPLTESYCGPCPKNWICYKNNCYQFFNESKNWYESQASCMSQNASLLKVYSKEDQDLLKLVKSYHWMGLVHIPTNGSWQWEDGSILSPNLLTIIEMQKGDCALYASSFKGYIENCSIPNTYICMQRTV

EC50 [1]: 1.7 nM
EC50 [2]: 5.9 nM
B1: IM1248 CD3x5T4x NKG2D-cl-10 (L-H) (protein, part only; not given: anti-CD3 Fab, anti-5T4 scFv, linkers, not shown: another chain or arm of the molecule; small tags and cut ends)
VL: DIVLTQSPASLAMSLGKRATISCRASESVSIMGTNLINWYQQKLGQPPKLLIYHASNLETGVPARFSGSGSRTDFTLTIDPVEEDDVAVYYCLQGRKIPRTFGGGTKLEIK
VH: QVQLQQPGAELVKPGASVKLSCKASGYTFTTYWIQWIKQRPGQGLEWIGEIDPSDIFTNYNQKFKGKATLTVDTSSSTAYMQLSSLTSEDSAVYYCARGVYDGYYVGYFDVWGTGTTVTVSS

EC50 [1]: 0.7 nM
EC50 [2]: 5.3 nM
B2: IM1249 CD3x5T4x NKG2D-cl-10 (H-L) (protein, part only; not given: anti-CD3 Fab, anti-5T4 scFv, linkers, not shown: another chain or arm of the molecule; small tags and cut ends)
VH: B1 VH
VL: B1 VL

binding result [3]: binds
B3: mAb010 (antibody, V domains shown)
VH: B1 VH
VL: B1 VL
notes: Mouse hybridoma mAb, protein A purified; also called IM, NKG2D mouse hybridoma cl- 10; NKG2D-cl-10

EC50 [1]: 2.6 nM
EC50 [2]: 21 nM
B4: IM1244 CD3x5T4x NKG2D-cl-1 (L-H) (protein, part only; not given: anti-CD3 Fab, anti-5T4 scFv, linkers, not shown: another chain or arm of the molecule; small tags and cut ends)
VL: DIVLTQSPASLAVSLGQRAIISCKASQSVSFAGSNLMHWYQQKPGQQPKLLIYRASNLEVGVPTRFSGSGSGTDFTLNIHPVDEDDAATYYCQQSREYPFTFGSGTKLEIK
VH: EVQLQQSGPELVKPGASVKISCKASAFNFTSYYLHWVKQGPGQGLEWIGWIYPGSGDTKYNEKFKGKATLTADTSSSAANMKLSSLTSEDSAVYYCARNRIFDSYYVDSMDYWGQGTSVTVSS

EC50 [1]: 1.1 nM
EC50 [2]: 13 nM
B5: IM1245 CD3x5T4x NKG2D-cl-1 (H-L) (protein, part only; not given: anti-CD3 Fab, anti-5T4 scFv, linkers, not shown: another chain or arm of the molecule; small tags and cut ends)
VH: B4 VH
VL: B4 VL

binding result [3]: binds
B6: mAb001 (antibody, V domains shown)
VH: B4 VH
VL: B4 VL
notes: Mouse hybridoma mAb, protein A purified; also called IM, NKG2D mouse hybridoma cl- 1; NKG2D-cl-1

EC50 [2]: 2.3 nM
B7: IM1250 CD3x5T4x NKG2D-cl-19 (L-H) (protein, part only; not given: anti-CD3 Fab, anti-5T4 scFv, linkers, not shown: another chain or arm of the molecule; small tags and cut ends)
VL: DILLTQSPAILSVSPGERVSFSCRASQSIGTSIHWYQQRTNVSPRLLIKYASESISGIPSRFSGSGSGTDFTLSINNVESEDIADYYCQHSNRWPLTFGAGTKLELK
VH: QVQLKESGPGLVAPSQSLSITCTVSGFSLTSYAISWFRQPPGKGLECLGVIWTGGGTNYNSVFKSRLSIIKDNSKSQVFLKMNSLQTDDTARYYCARKGDEGYWGYFDVWGTGTTVTVSS

binding result [4]: binds
B8: mAb019 (antibody, V domains shown)
VH: B7 VH
VL: B7 VL
notes: Mouse hybridoma mAb, protein A purified; also called IM, NKG2D mouse hybridoma cl- 19; NKG2D-cl-19

EC50 [2]: 15 nM
B9: IM1246 CD3x5T4x NKG2D-cl-9 (L-H) (protein, part only; not given: anti-CD3 Fab, anti-5T4 scFv, linkers, not shown: another chain or arm of the molecule; small tags and cut ends)
VL: DVLMTQTPLSLPVSLGDQASISCRSSQSIVHTNGNTYLEWYLQKPGQSPKLLIYRVFNRFSGVPDRFSGSGSGTEFTLKISRVEAEDLGVYYCFQGSHVPFTFGAGTKLELK
VH: EVKLLQSGGGLVQPGGSLKLSCAASGIDLSRYWMSWVRRAPGKGLEWIGEINPDSSTINYAPSLKDKFIISRDNAKNTLSLQMRKVRSEDTALYFCIRRRYYGSSYWYFDVWGTGTTVTVSS

binding result [5]: binds
B10: mAb009 (antibody, V domains shown)
VH: B9 VH
VL: B9 VL
notes: Mouse hybridoma mAb, protein A purified; also called IM, NKG2D mouse hybridoma cl- 9; NKG2D-cl-9

EC50 [2]: 30 nM
B11: IM1247 CD3x5T4x NKG2D-cl-9 (H-L) (protein, part only; not given: anti-CD3 Fab, anti-5T4 scFv, linkers, not shown: another chain or arm of the molecule; small tags and cut ends)
VH: B9 VH
VL: B9 VL

activation as measured by CD107a MFI on CD56^+gated NK cells population [6]: 35 to 40%
B12: IM1091 CD3/5T4/NKG2D mut(VL-VH) (protein, part only; not given: anti-CD3 Fab, anti-5T4 scFv, linkers, not shown: another chain or arm of the molecule; small tags and cut ends)
VL: QSALTQPASVSGSPGQSITISCSGSSSNIGNNAVNWYQQLPGKAPKLLIYADDLLPSGVSDRFSGSKSGTSAFLAISGLQSEDEADYYCAAWDDSLNGPVFGGGTKLTVL
VH: QVQLVESGGGLVKPGGSLRLSCAASGFTFSSYGMHWVRQAPGKGLEWVAFIRYDGSNKYYADSVKGRFTISRDNSKNTLYLQMNSLRAEDTAVYYCAKDAGEGDGTYFDYWGQGTTVTVSS
